# Assay: yeast display, Sf9 membrane polyspecificity reagent, FACS + sequencing; frameworks hold sequencing errors
# Procedure, shortened: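 Sorting gates, low and high (top ~1%), were placed on anti-HA fluorescence to track expression and on streptavidin fluorescence to track reagent binding. A clone's polyreactivity label is taken from the gate it came out of. The reagent was 10% biotinylated, detergent-solubilized Sf9 membrane, applied for 1 hour at 4 °C to galactose-induced yeast display cells.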
row,Sequence,polyreactivity (PSR sort gate)
1,QVQLVESGGGLVQAGGSLRLICAASGRIFSKNAMGWYRQAPGKEREFVAAISRIGGRTYYADSVKGRFTISRDNAKNTVYFQMNSLKPEDTAVYYCATVHYGYTTSYDYWGQGTQVTVSS,high polyreactivity
2,QVQLVESGGGLVQAGGSLRLICAASGRIFWSNTMGWYRQAPGKERELVAAISGRGGSTYYADSVKGRFTISRDNAKNTVYLQMNSLKPEDTAVYYCAAKPTRSRKIYEYWGQGTQVTVSS,low polyreactivity
3,QVQLVESGGGLVQAGGSLRLICAASGRIFYGYAMGWSRQAPGKERELVAAIRWSGGRTYYADSVKGRFTISRDNAKNTVYLQMNSLKPEATAVYYCAADYGYRSYVRFLSANYDYWGKGTQVTVSS,high polyreactivity
4,QVQLVESGGGLVQAGGSLRLICAASGRIFYSYSMGWSRPAPGKERELVATITTSGKTYYADSVNGRFTISRDNAKNTVYLQMNSLIPDDTAVYYCNAGWDLVYGYYPRRKIFDYWGQGTQVTVSS,high polyreactivity
5,QVQLVESGGGLVQAGGSLRLICAASGRILYYNVMVWYRQAPGKEREMVASITSVVSTNYADSVKGRFTISRDNAKNTVYLQMNSLKPEDTAVYYCAARYFSGSYSDQIWGMDYWGQGTQLTVSS,high polyreactivity
6,QVQLVESGGGLVQAGGSLRLICAASGRTFADYAMGWYRQAPGKERELVAAISWRGGSTYYADSVKGRFTISRDNAKITVYLQMNSLKPEDTAVYYSNKAYPAHYDYLGQGTQVTVSS,low polyreactivity
7,QVQLVESGGGLVQAGGSLRLICAASGRTFAPYAMGWYRQAPGKEMQLVAAISSGGGNTYYADSVKGRFTISRDNAKNTVYLQMNSLKPEDTAVYYCNAAQRRGGLGYWGQGTQVTVSS,high polyreactivity
8,QVQLVESGGGLVQAGGSLRLICAASGRTFGGNAMGWYRQAPGKERELVAAISSGGSTNYADSVNGRFTISRDNAKNTVYFLMNSLKPEDTAVYYCAADSKIGSFDSWGQGTQVTVSS,low polyreactivity
9,QVQLVESGGGLVQAGGSLRLICAASGRTFGRNAMGWYRQAPGKERELVAAISYGGGSTYYADSVKGRFTISRDNAKNTVYLQMNSLKPEDTPGSAAAARYAYGMWGQGTQVTVSS,low polyreactivity
10,QVQLVESGGGLVQAGGSLRLICAASGRTFGVYAMGWYRQAPGKERELVATIRTTGSTNYADSVKGRYTISRDNAKITVYLEMNSLKTEDTAVYYCAARQRQSKYYPYTTFTYDYWGQGTQVSVSS,high polyreactivity
11,QVQLVESGGGLVQAGGSLRLICAASGRTFKYKAMGWSRQAPGKERELVAVISRGGSTYADSVKGRFTISRDNAKNTVYLQMNSLKAEDTAVYYCAVGRNSRQASERYGWYKYDYWGQGTQVTVSS,high polyreactivity
12,QVQLVESGGGLVQAGGSLRLICAASGRTFPYNAMGWSRQAPGKERELVARITSGGRTYYADSVKGRFTISRDNAKNTVYLQMNSLKPEDPAVYYCAAETLRYYWKSYDWGQGTQVTVSA,high polyreactivity
13,QVQLVESGGGLVQAGGSLRLICAASGRTFRGDAMGWYRPAPGKERELVAAITKSGGSTYYADSVKGRFTISRDNAKNTVYLQMNSLKPEDTAVYYCAKLRSSRDYDYWGQVTQVTVSS,high polyreactivity
14,QVQLVESGGGLVQAGGSLRLICAASGRTFRHNAMGWYRQAPGKERELVAAISSSGTNTHYADSVKGRFTISRDNAQNTVYLQMNSLKPEDTAVYYCAADRWGARRKQYHENGYWGQGTQVTVSS,high polyreactivity
15,QVQLVESGGGLVQAGGSLRLICAASGRTFRKYAMGWYRQAPGKERELVAAINRGGTTKYADSVKGRFTISRDNAKNTVYLQMNSLKPEDTAVYYCNAAYGGVFFYAYDYWGQGTQVTVSS,low polyreactivity
16,QVQLVESGGGLVQAGGSLRLICAASGRTFSTYAMGWYRQAPGKERELVAAISSGGGRTYYADSVKGRFTISRDNAKNTVYLQMNSLKPEDTAVYYCAADRYVRSRRSYEYWGQGTQVTVSS,low polyreactivity

row,Sequence,polyreactivity (PSR sort gate)
1,QVQLVESGGGLVQAGGSLRLICAASGRTFSYYAIAWYRPAPGKERELVAAINWSGTRTYYADSVTGRCTISRDNAKNTVYLQMNSLNPEDTAVYYCARRWVGYDYWGQGTQVTVSS,high polyreactivity
2,QVQLVESGGGLVQAGGSLRLICAASGRTFTLNVMGWYRQAPGKETEFVATITWGGGRTYYADSVKGRFTISRDNAKNTVYLQMNSLKPVDTAVYYCAGQLAKTIRGRGYNSWGQGTQVTVSS,low polyreactivity
3,QVQLVESGGGLVQAGGSLRLICAASGRTFVYYAMGWYRQAPGKERELVAAITRSGGRTYYEDSVKGSFTISRDNAKNNVYLQMNSLKPEDTAVYYCAARYWDNPFWFDYWGQGTIVTVSS,high polyreactivity
4,QVQLVESGGGLVQAGGSLRLICAASGRTLAPNAMGWYRQAPGKERELVATITRGGTTNYADSVKGRFTISRDNAKNTVYLQMNSLKPEDTAVYYCAKAHYLGYYQRYDYWGQGTQVTVSS,low polyreactivity
5,QVQLVESGGGLVQAGGSLRLICAASGRTLDYYAMGWYRQAPGKERELVGAISQSDDSTYYADSVKGRFTISRDNSKNTVYLQMNILKPEDTAVNYCAAEIELFSPDGVGIYWYVYWGQGTQVYVSS,high polyreactivity
6,QVQLVESGGGLVQAGGSLRLICAASGRTLGGNDMGWYRQAPGKERELVAAITNSASTYADSVKGRFTISRDNAKNTVYLQMNSLKPEDTAVYYCNAPDPSDQHGDYWGQGTQVTVSS,low polyreactivity
7,QVQLVESGGGLVQAGGSLRLICAASGSIFAYNAMGWYRQAPGKERELVAAITDSGGSTFYADSVKGRFTISRDNAKNTVYLQMNSLKPEDTAVYYCATSGDRLVWGQGTQVTVSS,low polyreactivity
8,QVQLVESGGGLVQAGGSLRLICAASGSIFDFYAMGWYRQAPGKERELVAAISRNGGSTYYADSVKGRFTISRDNAKNTFYLQMNSLKPEDTAVYYCNKTVYVGAKEYDYWGQGTQVTVSS,high polyreactivity
9,QVQLVESGGGLVQAGGSLRLICAASGSIFFVYDMGWYRQAPGKERELVAAITWSGGRTTYADSVKGRFTISRDNAKNTVYLQMNSMKPEDTAVYYCAKAWPDHWYSRYDYWGQGTQVTVSS,low polyreactivity
10,QVQLVESGGGLVQAGGSLRLICAASGSIFGLYVMGWYRQAPGKERELVATITSGGSTYYADSVKGRFTISRDNAKNTVYLQMNSLKPEDTAVYYCNTRWTPSREYDYWGQGTQVTVSS,low polyreactivity
11,QVQLVESGGGLVQAGGSLRLICAASGSIFHVNSMGWYRQAPGKERELVAGISDGGSTYYADSVKGRFTISRDNAKNTVYLQMNSLKPEDTAVSYCAAESEQWYSYVLSYDWEYDYWGQGTHVTVSS,low polyreactivity
12,QVQLVESGGGLVQAGGSLRLICAASGSIFLYYAMGWYRQAPGKEMELVAAITSTGSTYYADSVKGRFTISRDNAKNTVYLQMNSLKPEDTAVYYCAAELRRLFYAYGYWGQGTQVTVSS,low polyreactivity
13,QVQLVESGGGLVQAGGSLRLICAASGSIFNQNSMGWYRQAPGKERELVAVISSGGRTSYADSVKGRFTISRDNAKNTVFLLMNSLKPEDTAVYYCNREGWHYGPYGYWGQGTQVTVSS,low polyreactivity
14,QVQLVESGGGLVQAGGSLRLICAASGSIFNYYAMGWYRQAPGKERELVAGITTSGGSTYYADSVKGRFTISRDNAKNTVHLQMNSLKPEDTAVYYCAAYDYISSTYFLDDYWGQGTQVTVSS,low polyreactivity
15,QVQLVESGGGLVQAGGSLRLICAASGSIFRKNAMGWYRQAPGKERELVAAITGTGRTTYADSVMGRFTISRDNAKNTVYLQRNSLKPEDTAVYYCAADVNYYQHRLYYWGQGTQVTVSS,low polyreactivity
16,QVQLVESGGGLVQAGGSLRLICAASGSIFSFYAMGWYRQAPGKERELVAAITSDGSTDYADSVKGRFTISRDNAKNTVYLQMNCLKPEDTAVYYCAADYIVRVVSRYRYGYEYWGQGTQVTVSS,low polyreactivity
